Source: the supplement of paper PMC9170038

System: K4 kissing-loop RNA reporter
Test: apparent KD of K4 kissing-loop reporter; higher = weaker reporter binding
Conditions: Eterna round: R107
Description: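 RNA-MaP round R107: designed RNA switches with theophylline, tryptophan, arginine or FMN aptamers are transcribed on-chip within common flanks. They are titrated with a labelled K4 kissing-loop RNA reporter in RNA-MaP buffer (100 mM Tris pH 7.5, 80 mM KCl, 4 mM MgCl2), without ligand or with the indicated ligand. Median apparent KD per design.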

[1] = input ligand: theophylline 20 uM
[2] = input ligand: tryptophan 2.4 mM
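Note: bound reporter read as fluorescence of individual clusters on recovered sequencing chips by microscopy, with normalized cluster intensities fitted with a binding model.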

Row | Sequence | apparent KD of K4 kissing-loop reporter (input ligand: FMN 200 uM) | apparent KD of K4 kissing-loop reporter (input ligand: arginine 13.2 mM) | apparent KD of K4 kissing-loop reporter (input ligand: none) | apparent KD of K4 kissing-loop reporter [1] | apparent KD of K4 kissing-loop reporter [2]
1 | GGUGCUGGCCAGUGAUGUUGGCGAAUACUGAAGGAUAUGAUAGGCGUCAGAAGGUCAAGAGUAAUAUCUAGAAUGAAUAGUGAUA [theeternabot_sameState_KL_FMN_A_38] | 296 nM | 289 nM | 329 nM | 439 nM | 285 nM
2 | GGGCUAUAGUGAUGUUAUUGUCUAAACGAUACCAGUUCACCCGUGAACCCUUGGCAGCGUGGUGUAACCUAUCCUCGUUGCACUG [theeternabot_sameState_KL_Theo_A_28] | 640 nM | 595 nM | 744 nM | 523 nM | 554 nM
3 | AAAAUAAGCCAGUGAUGUUGGUACCCAGAUACCAGCGACGAAAGUCGCCCUUGGCAGCUGUGGACGUACAAAAUAAGUACGUCCU | 434 nM | 209 nM | 315 nM | 617 nM | 303 nM
4 | AACGCUGGUGAAUAACACUAGCGAAAAUUCCGAGGACCGGUACGGCCGCCACUCGGCUAACUGCGAGUGAUGUUCGAUAAUAAAA [Mat - Mod of OpenEnded 3 - D9] | 80.3 nM | 183 nM | 109 nM | 189 nM | 60.2 nM
5 | GGUCCGGGCUCGGCCGCCACUCCCUCGUACCGCAAGGUAUGAUACCGAGUGAUGUUCGGUUGGAGGAGGACCGGGAGCCCGGACC [#2 Exclusion - Tryptophan B Attempt #9 (HarryS)] | 112 nM | 110 nM | 132 nM | 124 nM | 100 nM
6 | AAAAUAAUCCAGUGAUGUUGGUAUCCAGAUACCAGCCAGGAAACUGGCCCUUGGCAGCUGUGGACGUACAAAAUAAGUACGUCCU [#OpenEnded 10 #StaticStem #K4Early] | 481 nM | 268 nM | 464 nM | 611 nM | 355 nM
7 | UUUGGAAGCGGUGUUGAUUAGGGAGCGGAAGGAGCGCCGAUUAUGGCAGGUAGGUCGCCGGAAUGUAGUGAUGUUGCAUAGAGGU [ExArgA.X] | 185 nM | 130 nM | 240 nM | 273 nM | 128 nM
8 | AAAAUAAUCCAGUGAUGUUGGUUUCCAGAUACCAGCGACGAAAGUCGCCCUUGGCAGCUGUGGACGUACAAAAUAAGUACGUCCU | 318 nM | 362 nM | 359 nM | 276 nM | 300 nM
9 | UCCUCGAAUCGACCUCGAAAGAGGAUGGAUACCAGUCUUGAUAAAGACCCUUGGCAGCCAGUGAUGUUGGAACGAGGUAAAUAAA [#SwitchBubble 19 #K4Late] | 531 nM | 365 nM | 571 nM | 535 nM | 359 nM
10 | CAUAGGAAACUAUGUUUCUCUCUGACUGAAGGAGCGCGUGAAAACGCAGGUAGGUCGCAGAAUUUAACAGAGAGUGAUGUUCUCA [Ex Arginine A K4 12] | 457 nM | 396 nM | 567 nM | 633 nM | 430 nM
11 | GGGAAGAAGGCGGCCGCCACUGCAGAAGAGACAGAGAGGGUAGAAGAGGAGUGAUGUUCCAAGAACAGGACCGGGCCAAGAAGGG [whbob_SS_Tryp_B_t30] | 226 nM | 172 nM | 226 nM | 237 nM | 137 nM
12 | UCUUAACUAAAAUAAUGGGAUACCAGUGAUACCAGCCAUAUGCAGGGCCCUUGGCAGCACCCUUGGCAGCCUCGAGUGAUGUUCG [KL-SSTheo-A7 #DoubleAptamer] | 283 nM | 292 nM | 315 nM | 247 nM | 230 nM
13 | GGGCGUGGCGCGGCCGCCACUGGGCCUGGGCGCUCGCUGAGUGAUGUUCGUCGGCGGUUGGGUCGUAGGACCGGGUGCUGGUUGG [BDazzled - #8 SS Tryptophan B] | 402 nM | 199 nM | 516 nM | 281 nM | 253 nM
14 | GCGCGUCAUGGCGGCGGUGACUACGCCGAUACCAGCCGGGAAACCGGCCCUUGGCAGCGGCGCGCCGGAGUGAUGUUCCGACAGA [#2 Exclusion - Theophylline A Attempt #4 (HarryS)] | 226 nM | 275 nM | 275 nM | 370 nM | 214 nM
15 | UCGGGCGGCUGAAGGAGCGGGCGGGCCCGAGUGAUGUUCGGGUGGGCCGUGAGGCCCGGAGCCCAGGUAGGUCGCGGUUCCGCCC [#2 Same State - Arginine B Attempt #23 (HarryS)] | 200 nM | 153 nM | 188 nM | 168 nM | 175 nM
16 | GUCUAGCUAGCAGGAUAUAGCUGGUAGUGAUGUUACCACUAGAACUCUGCGGAAACGCAGAGUAUCCUAGAAGGGCUAGCUAGAC | 95 nM | 65 nM | 75.4 nM | 63.9 nM | 66.8 nM

Row | Sequence | apparent KD of K4 kissing-loop reporter (input ligand: FMN 200 uM) | apparent KD of K4 kissing-loop reporter (input ligand: arginine 13.2 mM) | apparent KD of K4 kissing-loop reporter (input ligand: none) | apparent KD of K4 kissing-loop reporter [1] | apparent KD of K4 kissing-loop reporter [2]
17 | AACCGCCAGUCGGCCGCCACUCACAGCAGUGAUGUUGCUGAAAAUCUAAAAGAGUGAUGUUCUUAGAGGACCGGGACUCCAGGCG [Same State Tryptophan B GF 5] | 260 nM | 76.9 nM | 218 nM | 56.7 nM | 145 nM
18 | AAUACGUUCACGGCCGCCACUGAAUAAUUGGUAAGUAGUGAUGUUACUUUACAUAUCUUAUUUAACAGGACCGGGUGAUCGUUUA [JR_Nu_ExcTryptoB_Sub028] | 130 nM | 108 nM | 122 nM | 105 nM | 142 nM
19 | AAUCAAUACAGAAGGAGCGUGACAAUUACUAUUGAAUUAGGAGCUAGUGAUGUUAGCAUAACACAGGUAGGUCGCUGUACAUUUA [JR_SSArginiB_Sub012] | 145 nM | 175 nM | 163 nM | 182 nM | 148 nM
20 | ACGCUGUGAAUAACACAGCGAAUAAAUUCGCGAGGACCGGUACGGCCGCCACUCGCUAACUGCGAGUGAUGUUCGAUAAUAAAAU [Mat - Mod of OpenEnded 3 - D13] | 176 nM | 80.8 nM | 172 nM | 201 nM | 91.1 nM
21 | CUAGAAGUGAUGUUUCAUAGUAAAUCUGAUACCAGCAUUAAACCCUGCCCUUGGCAGCAGAAUGGGCUGAUAGACUCCUGCAGCU [theeternabot_sameState_KL_Theo_A_36] | 220 nM | 199 nM | 228 nM | 208 nM | 182 nM
22 | GGAUCCACCAGUGAUGUUGGAGAAAACUCUAAGGAUAUGACGAAAGUCAGAAGGUAGUAGACUGGACAAAGUCCGGUCGGAUCCA [FmnA 23 U30+A56] | 583 nM | 376 nM | 1190 nM | 661 nM | 484 nM
23 | UGGAUAUAGUGAUGUUAUAUAGAGAUGGAUACCAGUUAAGAGAAUAGCCCUUGGCAGCCGAAAGAAGUAUCAUUAGAGAAGAAUG [ExTheophyl.Ad] | 261 nM | 183 nM | 239 nM | 194 nM | 195 nM
24 | GGCCGCAAGGCGGGCCGGCCCACUCCGGAAGGAGCGCCCGCAAGGGCAGGUAGGUCGCCGGAGUGAUGUUCCGGUGGCCGGCCCG [#2 Exclusion - Arginine A Attempt #2 (Inspired by Omei)] | 140 nM | 136 nM | 133 nM | 93.8 nM | 130 nM
25 | AAUAUAGUGAUGUUAUAUAAGAAGGAGUUACGAGGACCGGUACGGCCGCCACUCGAAACGAGUGAGGAUUUGGGAGAUUGGGUUU [SSTryptA.M] | 493 nM | 443 nM | 474 nM | 324 nM | 389 nM
26 | CGAGUGAUGUUCGUUCGUUUAUUUGGGUGACAGGAUAUGCGGAAACGCAGAAGGGUCACCUUCGGGUUACCCGAAUUAACGUUAU [#09 K4 FMN A Exclusion] | 724 nM | 520 nM | 688 nM | 587 nM | 717 nM
27 | AGUUCUUGCCGAAGGAGCGAGGCAGAGUGAUGUUCUGCAAAGGUCGAAAGACCUUAACUGCCUCAGGUAGGUCGCGGCAUGAACA [KL-XARG-B23] | 622 nM | 351 nM | 624 nM | 602 nM | 580 nM
28 | UAGAUGUUGUAAGAUAUUGAUAGUCGGGAAGGAGCGCUCACAAUAGCAGGUAGGUCGCCCGACAGUGUUAGGAGUGAUGUUCCUU [7.)] | 92.9 nM | 119 nM | 97.9 nM | 121 nM | 83.5 nM
29 | UGAUAGGACAGAAGGAGCGGAGCUGGUCAAAGACCAGCAAUACGUUAAAUAGGAGUGAUGUUCCAGGUAGGUCGCUGUCCUAUCU [ArgBX 28 #SwitchBubble #StaticStem] | 131 nM | 121 nM | 121 nM | 101 nM | 87.9 nM
30 | CCGCUACCCUCAGGAUAUUAAAUAUUAGUGAUGUUAGUAAACCGAUGGCGAAAGCCAUCGGUAUGUUGAGAAGGGAGGGUAGCGG [whbob_SS_FMNB__2th197] | 403 nM | 1810 nM | 2240 nM | 891 nM | 880 nM
31 | GGAGUGAUGUUCCAUUUUUAAAUCUCCGAUACCAGUAUGGAAACAUACCCUUGGCAGCGGUAAACCGCAGAUUAGGAAACUAGUC [Theophylline A K4 1] | 496 nM | 682 nM | 615 nM | 501 nM | 561 nM
